Results from article PMC4388271 (Acta Crystallographica Section D: Biological Crystallography, 2015).

Legend:
[1] = target: T1, YpTesB (TesB acyl-CoA thioesterase from Y. pestis) (Yersinia pestis, UniProt A0A3N4BCC7); conditions: 100 mM phosphate pH 8.0, 0.1 mM DTNB
[2] = target: T1, YpTesB (TesB acyl-CoA thioesterase from Y. pestis); conditions: 2.2 A; crystals grown with 1 mM octanoyl-CoA, sodium malonate pH 7.0; CoA between two adjacent chains, in two of four sites
[3] = target: TesB acyl-CoA thioesterase from Yersinia pestis (Yersinia pestis); assay: AUC
[4] = target: TesB acyl-CoA thioesterase from Yersinia pestis (Yersinia pestis); assay: crystal structure
[5] = target: TesB acyl-CoA thioesterase from Yersinia pestis (Yersinia pestis); assay: small-angle X-ray scattering (SAXS)
[6] = target: TesB acyl-CoA thioesterase from Yersinia pestis (Yersinia pestis); assay: SEC

CCCCCCCCCC(=O)SCCNC(=O)CCNC(=O)[C@H](O)C(C)(C)COP(=O)(O)OP(=O)(O)OC[C@H]1O[C@@H](n2cnc3c(N)ncnc32)[C@H](O)[C@@H]1OP(=O)(O)O [C10, decanoyl-CoA]
DTNB assay of released thiol, 412 nm [1]: The highest activity was exhibited towards medium-chain acyl-CoAs (C6–C10)

CC(C)(COP(=O)(O)OP(=O)(O)OC[C@H]1O[C@@H](n2cnc3c(N)ncnc32)[C@H](O)[C@@H]1OP(=O)(O)O)[C@@H](O)C(=O)NCCC(=O)NCCS [CoA]
X-ray crystallography [2]: revealing the same quaternary arrangement of domains as the apo form with density for two CoA molecules

TesB acyl-CoA thioesterase from Yersinia pestis (enzyme)
stoichiometry N [3]: 4 | stoichiometry N [4]: 4 | stoichiometry N [5]: 4 | stoichiometry N [6]: 4
